Experimental data published in ChEMBL document CHEMBL1157682, “In silico prediction of human carboxylesterase-1 (hCES1) metabolism combining docking analyses and MD simulations” (Bioorg Med Chem, 2010).
Values joined by “and” are separate entries in the source; they are usually repeats but may differ in a detail not shown here. Equal values may be shown once.

Legend:
not read = substrate: COC(=O)[C@H](c1ccccc1Cl)N1CCc2sccc2C1; experiment: not read
[1] = substrate: [H][C@@]1([C@@H](C(=O)OC)c2ccccc2)CCCCN1; experiment: (§1) Activity at human recombinant CES1 expressed in baculovirus-infected Spodoptera frugiperda Sf21 cells assessed as substrate hydrolysis by fluorescence assay
[2] = substrate: CCCCCOC(=O)Nc1nc(=O)n([C@@H]2O[C@H](C)[C@@H](O)[C@H]2O)cc1F; experiment: as §1
[3] = substrate: COc1ccc2cc([C@H](C#N)OC(=O)[C@@H]3[C@H](C=C(Cl)Cl)C3(C)C)ccc2c1; experiment: as §1
[4] = substrate: CC1(C)[C@H](C=C(Cl)Cl)[C@@H]1C(=O)OCc1cccc(Oc2ccccc2)c1; experiment: as §1
[5] = substrate: COc1ccc2cc([C@H](C#N)OC(=O)[C@@H]3[C@@H](C=C(Cl)Cl)C3(C)C)ccc2c1; experiment: as §1
[6] = substrate: COC(=O)[C@H](c1ccccc1)[C@H]1CCCCN1; experiment: as §1
[7] = substrate: CC(C)=C[C@H]1[C@H](C(=O)OCc2coc(Cc3ccccc3)c2)C1(C)C; experiment: as §1
[8] = substrate: CCOC(=O)[C@H](CCc1ccccc1)N[C@H]1CCc2ccccc2N(CC(=O)O)C1=O; experiment: as §1
[9] = substrate: CC1(C)[C@H](C(=O)OCc2cccc(Oc3ccccc3)c2)[C@@H]1C=C(Cl)Cl; experiment: as §1
[10] = substrate: CCOC(=O)[C@H](CCc1ccccc1)N[C@@H](C)C(=O)N1Cc2ccccc2C[C@H]1C(=O)O; experiment: as §1
[11] = substrate: CCOC(=O)C1(c2ccccc2)CCN(C)CC1; experiment: as §1
[12] = substrate: CCCC(=O)Oc1ccc([N+](=O)[O-])cc1; experiment: as §1
[13] = substrate: CC1(C)[C@@H](C=C(Cl)Cl)[C@@H]1C(=O)OCc1cccc(Oc2ccccc2)c1; experiment: as §1
[14] = substrate: CC(=O)Oc1ccc([N+](=O)[O-])cc1; experiment: as §1
[15] = substrate: COc1ccc2cc(C(C#N)OC(=O)C3C(C)(C)C3(C)C)ccc2c1; experiment: as §1
[16] = substrate: CCOC(=O)[C@H](CCc1ccccc1)N[C@H]1CCCN2CCC[C@@H](C(=O)O)N2C1=O; experiment: as §1
[17] = substrate: CC(C)C[C@H](N)C(=O)OC[C@H]1O[C@@H](n2cc(F)c(=O)[nH]c2=O)C[C@@H]1O; experiment: as §1
[18] = substrate: CCOC(=O)[C@H](CCc1ccccc1)N[C@@H](C)C(=O)N1C(=O)N(C)C[C@H]1C(=O)O; experiment: as §1
[19] = substrate: CN(C)C(=O)COC(=O)Cc1ccc(OC(=O)c2ccc(NC(=N)N)cc2)cc1; experiment: as §1
[20] = substrate: CC(C)[C@H](N)C(=O)OC[C@H]1O[C@@H](n2cc(F)c(=O)[nH]c2=O)C[C@@H]1O; experiment: as §1
[21] = substrate: COc1ccc2cc([C@H](C#N)OC(=O)[C@H]3[C@H](C=C(Cl)Cl)C3(C)C)ccc2c1; experiment: as §1
[22] = substrate: COc1ccc(C(=O)N2CCCC2=O)cc1; experiment: as §1
[23] = substrate: CCc1c2c(nc3ccc(OC(=O)N4CCC(N5CCCCC5)CC4)cc13)-c1cc3c(c(=O)n1C2)COC(=O)[C@]3(O)CC; experiment: as §1
[24] = substrate: N[C@@H](CC(=O)O)C(=O)OC[C@H]1O[C@@H](n2cc(F)c(=O)[nH]c2=O)C[C@@H]1O; experiment: as §1
[25] = substrate: COc1ccc2cc([C@@H](C#N)OC(=O)[C@H]3[C@H](C=C(Cl)Cl)C3(C)C)ccc2c1; experiment: as §1
[26] = substrate: CCOC(=O)[C@H](CCc1ccccc1)N[C@H]1CS[C@H](c2cccs2)CN(CC(=O)O)C1=O; experiment: as §1
[27] = substrate: COc1ccc2cc([C@@H](C#N)OC(=O)[C@@H]3[C@@H](C=C(Cl)Cl)C3(C)C)ccc2c1; experiment: as §1
[28] = substrate: CC(=O)Oc1ccc2c(C)cc(=O)oc2c1; experiment: as §1
[29] = substrate: CCOC(=O)[C@H](CCc1ccccc1)N[C@@H](C)C(=O)N(CC(=O)O)C1Cc2ccccc2C1; experiment: as §1
[30] = substrate: CC(=O)Oc1ccc2c3c1O[C@H]1[C@@H](OC(C)=O)C=C[C@H]4[C@@H](C2)N(C)CC[C@@]341; experiment: as §1
[31] = substrate: COc1ccc2cc([C@@H](C#N)OC(=O)[C@H]3[C@@H](C=C(Cl)Cl)C3(C)C)ccc2c1; experiment: as §1
[32] = substrate: N[C@@H](Cc1ccccc1)C(=O)OC[C@H]1O[C@@H](n2cc(F)c(=O)[nH]c2=O)C[C@@H]1O; experiment: as §1
[33] = substrate: CCOC(=O)C1=C[C@@H](OC(CC)CC)[C@H](NC(C)=O)[C@@H](N)C1; experiment: as §1
[34] = substrate: CC(=O)O[C@H]1C=C[C@H]2[C@H]3Cc4ccc(O)c5c4[C@@]2(CCN3C)[C@H]1O5; experiment: as §1
[35] = substrate: COC(=O)[C@H]1[C@@H](OC(=O)c2ccccc2)C[C@@H]2CC[C@H]1N2C; experiment: as §1
[36] = substrate: CC1(C)[C@H](C=C(Cl)Cl)[C@H]1C(=O)OCc1cccc(Oc2ccccc2)c1; experiment: as §1
[37] = substrate: COc1cc(C(=O)OCCCN2CCCN(CCCOC(=O)c3cc(OC)c(OC)c(OC)c3)CC2)cc(OC)c1OC; experiment: as §1
[38] = substrate: COc1ccc2cc([C@H](C#N)OC(=O)[C@H]3[C@@H](C=C(Cl)Cl)C3(C)C)ccc2c1; experiment: as §1

B1: Liver carboxylesterase 1 (Homo sapiens) (protein)
chain: MWLRAFILATLSASAAWGHPSSPPVVDTVHGKVLGKFVSLEGFAQPVAIFLGIPFAKPPLGPLRFTPPQPAEPWSFVKNATSYPPMCTQDPKAGQLLSELFTNRKENIPLKLSEDCLYLNIYTPADLTKKNRLPVMVWIHGGGLMVGAASTYDGLALAAHENVVVVTIQYRLGIWGFFSTGDEHSRGNWGHLDQVAALRWVQDNIASFGGNPGSVTIFGESAGGESVSVLVLSPLAKNLFHRAISESGVALTSVLVKKGDVKPLAEQIAITAGCKTTTSAVMVHCLRQKTEEELLETTLKMKFLSLDLQGDPRESQPLLGTVIDGMLLLKTPEELQAERNFHTVPYMVGINKQEFGWLIPMQLMSYPLSEGQLDQKTAMSLLWKSYPLVCIAKELIPEATEKYLGGTDDTVKKKDLFLDLIADVMFGVPSVIVARNHRDAGAPTYMYEFQYRPSFSSDMKPKTVIGDHGDELFSVFGAPFLKEGASEEEIRLSKMVMKFWANFARNGNPNGEGLPHWPEYNQKEGYLQIGANTQAAQKLKDKEVAFWTNLFAKKAVEKPPQTEHIEL
Km (not read): 55.7 µM | Km [1]: 89.9 µM | Km [2]: 1300 µM | Km [3]: 0.3 µM | Km [4]: 23.8 µM | Km [5]: 1.7 µM | Km [6]: 43.8 µM | Km [7]: 6.72 µM | Km [8]: 734 µM | Km [9]: 23.8 µM | Km [10]: 134 µM | Km [11]: 1900 µM | Km [12]: 130 µM | Km [13]: 9.8 µM | Km [14]: 359 µM | Km [15]: 1.5 µM | Km [16]: 1300 µM | Km [17]: 970 µM | Km [18]: 287 µM | Km [19]: 707 µM | Km [20]: 3580 µM | Km [21]: 1.9 µM | Km [22]: 85 µM and 95 µM | Km [23]: 1450 µM | Km [24]: 3000 µM | Km [25]: 2.4 µM | Km [26]: 786 µM | Km [27]: 0.7 µM | Km [28]: 800 µM | Km [29]: 1500 µM | Km [30]: 6300 µM | Km [31]: 1.4 µM | Km [32]: 460 µM | Km [33]: 177 µM | Km [34]: 8300 µM | Km [35]: 120 µM | Km [36]: 9.8 µM | Km [37]: 154 µM | Km [38]: 1.5 µM
